Data published in article PMC2796330.

Target: the unphosphorylated T-PY motif (Smad2 or Smad3 peptide)
Assay: ITC

fold lower affinity than for the pT-PY motif peptide: 7 to 15 fold
Substance: recombinant Nedd4L WW2 domain (domain or fragment)
